The values that follow come from article PMC7552008.

Series [1] has as its target T1, NS1 RBD H7N1 (Influenza A virus (avian H7N1; allele B), UniProt Q1PST0 1-73). Description: X-ray crystallography; 2.30 A; 2 M ammonium sulfate. As to conditions: protein: recombinant; tags: N-His thrombin-cleaved (vector residues remain); chain copies: 2.
The target of series [2] is T1, NS1 RBD H7N1. Description: EMSA. As to conditions: protein: recombinant; tags: N-His thrombin-cleaved (vector residues remain); chain copies: 2; label: 5'-32P.
Series [3] deals with NS1 RBD H7N9 (Influenza A virus (H7N9), UniProt S4VCY8 1-73). Put plainly: EMSA. As to conditions: protein: recombinant; tags: N-His thrombin-cleaved; chain copies: 2; label: 5'-32P. (In general: Mobility shift assays separate free from complexed probe on a gel.)
Series [4] deals with NS1 RBD H17N10 (Influenza A virus (H17N10), UniProt H6QM79 1-73). Description: EMSA. As to conditions: protein: recombinant; tags: N-His thrombin-cleaved; chain copies: 2; label: 5'-32P.
Series [5] concerns the target T1, NS1 RBD H7N1. Description: competition EMSA; EC50app vs labelled AWFC01. As to conditions: protein: recombinant, tags: N-His thrombin-cleaved (vector residues remain), chain copies: 2.

B1: ZKO* (dsRNA)
RNA 1: AGACAGCAUUAUGCUGUCU
RNA 2: AGACAGCAUUAUGCUGUCU
Regarding B1, the binding result in series [1] was “binds”.

For UGAUUGAAG (ssRNA) [DM03-mot B], the binding result in series [2] is “no binding”.

B2: AWFC01 (dsRNA)
RNA 1: GGUAACUGUUACAGUUACC
RNA 2: GGUAACUGUUACAGUUACC
What is called Kd is the constant that tells how readily two partners part at equilibrium. Broadly, the IC50 is the concentration that gives 50% inhibition. Regarding B2, the Kd amounted to 3.1 ± 0.1 nM in series [3], 0.83 ± 0.03 nM in series [2] and 1.5 ± 0.1 nM in series [4]. Further, the IC50 in series [5] (label: 5'-32P) turned out to be 1.7 ± 0.1 nM. AGCAAAAG (ssRNA) [DM01-mot A]: the binding result in series [2] was “no binding”.

B3: ZKO (dsRNA)
RNA 1: AGACAGCAUUAUGCUGUCUUU
RNA 2: AGACAGCAUUAUGCUGUCUUU
On to B3, for which, in series [5], the IC50 turned out to be 96 ± 3 nM.
